The results in this text go back to publication PMC7611554.

The assay concerns the target SNAP-LepR:EGFR complex (UniProt P48356). Put plainly: FRET or BRET. (In general: In BRET a luciferase serves as donor, and the signal depends on an acceptor being close.)

Broadly, the Kd is a measure of binding affinity in units of concentration. Lower therefore signals higher affinity. EGF-d2 (ligand): the Kd is 2.1 nM.
